Experimental data taken from US20200317768A1 (published 2020).
Positions count from the first letter of the chain named.

B1: MS_M103205H000-SG1/M103202LO00-SK1 (antibody, human IgG1, kappa, V domains shown)
VH: QVTLKESGPVLVKPTETLTLTCTVSGIDLSSYDISWVRQAPGKGLEWVGIISYAGSTYYASWAKGRLTISKDTSKNQVVLTMTNMDPVDTATYYCARGVPAYSTGGDLWGQGTLVTVSS
VL: DIVMTQSPATLSLSPGERATLSCQSSQSVYDNNWLSWFQQKPGQPPKLLIYWASTLASGVPSRFSGSGSGTDFTLTISSLQPEDAATYYCAGGYGGGLYAFGQGTKVEIKR
notes: Humanized MST1032, not pH-dependent; also called MS1032LO00-SG1; Ab001
B2: M103205H795-MY172 / M103202L889-SK1 (antibody, human IgG1, kappa)
heavy: QVTLKESGPVLVKPTETLTLTCTVSGIDLSHDDISWVRQAPGKGLEWVGIISYAGSTYYASWAKGRLTISKDTSKNQVVLTMTNMDPVDTATYYCARGVPAYSHGGDLWGQGTLVTVSSASTKGPSVFPLAPSSKSTSGGTAALGCLVKDYFPEPVTVSWNSGALTSGVHTFPAVLQSSGLYSLSSVVTVPSSSLGTQTYICNVNHKPSNTKVDKKVEPKSCDKTHTCPPCPAPELLNGPSVFLFPPKPKDTLMISRTPEVTCVVVDVSEEDPEVKFNWYVDGVEVHNAKTKPREEQYNSTYRVVSVLTVLHQDWLNGKEYKCKVSNKALPAPIEKTISKAKGQPREPQVYTLPPSREEMTKNQVSLTCLVKGFYPSDIAVEWESNGQPENNYKTTPGVLDSDGSFFLYSKLTVDKSRWQQGNVFSCSVMHEALHNHYTQKSLSLSP
light: DIVMTQSPATLSLSPGERATLSCTSSQSVYHANWLSWFQQKPGQPPKLLIYWASTLAYGVPSRFSGSGSGTDFTLTISSLQPEDAATYYCAGGYGGGRYAFGQGTKVEIKRTVAAPSVFIFPPSDEQLKSGTASVVCLLNNFYPREAKVQWKVDNALQSGNSQESVTEQDSKDSTYSLSSTLTLSKADYEKHKVYACEVTHQGLSSPVTKSFNRGEC
notes: Position 396 variant derived from MY052, expressed with M103202L889-SK1 as light chain
B3: M103205H795-MY181 / M103202L889-SK1 (antibody, human IgG1, kappa)
heavy: B2 heavy with G398T
light: B2 light
notes: as for B2
B4: M103205H795-MY178 / M103202L889-SK1 (antibody, human IgG1, kappa)
heavy: B2 heavy with G398Q
light: B2 light
notes: as for B2
B5: M103205H795-MY183 / M103202L889-SK1 (antibody, human IgG1, kappa)
heavy: B2 heavy with G398W
light: B2 light
notes: as for B2
B6: M103205H795-MY173 / M103202L889-SK1 (antibody, human IgG1, kappa)
heavy: B2 heavy with G398H
light: B2 light
notes: as for B2
B7: M103205H795-MY182 / M103202L889-SK1 (antibody, human IgG1, kappa)
heavy: B2 heavy with G398V
light: B2 light
notes: as for B2
B8: M103205H795-MY184 / M103202L889-SK1 (antibody, human IgG1, kappa)
heavy: B2 heavy with G398Y
light: B2 light
notes: as for B2
B9: M103205H795-MY176 / M103202L889-SK1 (antibody, human IgG1, kappa)
heavy: B2 heavy with G398L
light: B2 light
notes: as for B2
B10: M103205H795-MY177 / M103202L889-SK1 (antibody, human IgG1, kappa)
heavy: B2 heavy with G398N
light: B2 light
notes: as for B2
B11: M103205H795-MY179 / M103202L889-SK1 (antibody, human IgG1, kappa)
heavy: B2 heavy with G398R
light: B2 light
notes: as for B2
B12: M103205H795-MY175 / M103202L889-SK1 (antibody, human IgG1, kappa)
heavy: B2 heavy with G398K
light: B2 light
notes: as for B2
B13: M103205H795-MY180 / M103202L889-SK1 (antibody, human IgG1, kappa)
heavy: B2 heavy with G398S
light: B2 light
notes: as for B2
B14: M103205H795-MY174 / M103202L889-SK1 (antibody, human IgG1, kappa)
heavy: B2 heavy with G398I
light: B2 light
notes: as for B2

Assays:
Human latent myostatin [1] = biological target: T1, Human latent myostatin (human, UniProt O14793 25-266; O14793 267-375); assay: SPR (BIACORE T200), 37 C, pH7.4, avidity condition (capture 185 RU), 1:1 fit; pH 7.4
T1 construct: Biotinylated in the ELISAs; also called human myostatin latent form
T1 sequence 1: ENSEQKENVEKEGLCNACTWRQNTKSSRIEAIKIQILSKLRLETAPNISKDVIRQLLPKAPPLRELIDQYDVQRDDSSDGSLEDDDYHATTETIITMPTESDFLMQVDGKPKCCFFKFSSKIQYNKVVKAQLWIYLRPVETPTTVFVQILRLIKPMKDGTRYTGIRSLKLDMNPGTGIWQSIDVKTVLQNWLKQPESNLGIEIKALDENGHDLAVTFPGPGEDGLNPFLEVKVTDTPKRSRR
T1 sequence 2: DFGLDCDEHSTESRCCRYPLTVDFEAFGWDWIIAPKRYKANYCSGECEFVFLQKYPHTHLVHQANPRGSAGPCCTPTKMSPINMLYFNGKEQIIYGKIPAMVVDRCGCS

Human latent myostatin [2] = biological target: T1, Human latent myostatin; assay: SPR (BIACORE) as in Example 7; antigen not given, values equal those for human latent myostatin in Table 7
Method: The kinetic parameters of anti-latent myostatin antibodies against human, cynomolgus monkey (cyno), and mouse latent myostatin were assessed at 37° C. at pH7.4 using a BIACORE® T200 instrument (GE Healthcare). ProA/G (Pierce) was immobilized onto all flow cells of a CM4 chip using amine coupling kit (GE Healthcare). Anti-latent myostatin antibody and analytes were prepared in ACES pH7.4 (20 mM ACES, 150 mM NaCl, 1.2 mM CaCl₂), 0.05% TWEEN® 20, 0.005% NaN₃). […] Then human, cyno, or mouse latent myostatin was injected at 3.125 to 50 nM prepared by two-fold serial dilution, followed by dissociation. The sensor surface was regenerated with 25 mM NaOH. Kinetic parameters were determined by processing and fitting the data to a 1:1 binding model using BIACORE® T200 Evaluation software, version 2.0 (GE Healthcare).
Humanized antibodies were transiently expressed in FS293-F cells, and HEK Blue Assay and BIACORE® analysis were carried out as described above.

Human latent myostatin [3] = biological target: T1, Human latent myostatin; assay: SPR (BIACORE), additional dissociation phase at pH5.8 after dissociation at pH7.4, Scrubber 2.0 fit
Method: Each amino acid in the CDRs was individually mutated to histidine using In-Fusion HD Cloning Kit (Clontech Inc, or Takara Bio company) according to the manufacturer's instructions. […] All histidine-substituted variants were evaluated by a modified BIACORE® assay as compared to that described above. Briefly, an additional dissociation phase at pH5.8 was integrated into the BIACORE® assay immediately after the dissociation phase at pH7.4. This is to assess the pH-dependent dissociation between antibody (Ab) and antigen (Ag) from the complexes formed at pH7.4 as opposed to the corresponding dissociation at pH5.8. The dissociation rate at pH5.8 buffer was determined by processing and fitting data using the Scrubber 2.0 (BioLogic Software) curve fitting software.
Antibodies with a combination of these mutations in the CDRs were then generated.

[4] = biological target: T2, human FcγRIIaR extracellular domain with C-terminal His-tag (human, UniProt P12318 34-217); assay: SPR (Biacore), antibody captured on chip, FcgR extracellular domain as analyte, 25 C
T2 construct: Expressed in FreeStyle 293 cells and purified; also called human FcγRIIa (type R); FcgRIIaR; not shown: C-terminal His-tag
T2 chain: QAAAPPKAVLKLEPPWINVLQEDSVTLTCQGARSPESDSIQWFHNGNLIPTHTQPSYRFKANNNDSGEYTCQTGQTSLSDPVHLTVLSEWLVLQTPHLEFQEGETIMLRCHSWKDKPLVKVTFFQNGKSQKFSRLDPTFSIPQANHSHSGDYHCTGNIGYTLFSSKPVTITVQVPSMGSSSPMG

[5] = biological target: T3, human FcγRIIIaV extracellular domain with C-terminal His-tag (human, UniProt P08637 17-208); assay: as above
T3 construct: Expressed in FreeStyle 293 cells and purified; also called FcgRIIIaV; not shown: C-terminal His-tag
T3 sequence (P08637 17-208 F176V): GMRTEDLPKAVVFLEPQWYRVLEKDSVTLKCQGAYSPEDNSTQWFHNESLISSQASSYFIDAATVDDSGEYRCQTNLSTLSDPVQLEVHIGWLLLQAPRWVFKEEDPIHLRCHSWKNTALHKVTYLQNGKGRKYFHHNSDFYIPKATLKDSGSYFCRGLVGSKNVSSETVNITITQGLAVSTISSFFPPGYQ

Row | Binder | Kd [4] [µM] | Kd [5] [µM] | other results
1 | B1 |  |  | Kd (Human latent myostatin [1]): 75 pM; koff (Human latent myostatin [1]): 9.52e-05 s⁻¹; kon (Human latent myostatin [1]): 1.27e+06 M⁻¹ s⁻¹; Kd (Human latent myostatin [2]): 75 pM; koff (Human latent myostatin [2]): 9.52e-05 s⁻¹; kon (Human latent myostatin [2]): 1.27e+06 M⁻¹ s⁻¹; koff (Human latent myostatin [3]): 2.92e-05 s⁻¹
2 | B2 | 3.1 | 6.5 | 
3 | B3 | 2.5 | 7.3 | 
4 | B4 | 2.3 | 4.5 | 
5 | B5 | 2.1 | 7.2 | 
6 | B6 | 1.9 | 7 | 
7 | B7 | 2.1 | 7 | 
8 | B8 | 2 | 6.8 | 
9 | B9 | 1.3 | 6.7 | 
10 | B10 | 2.8 | 6.2 | 
11 | B11 | 2.1 | 5.9 | 
12 | B12 | 1.8 | 7.6 | 
13 | B13 | 3 | 5.9 | 
14 | B14 | 1.4 | 6.8 | 
